Results from publication PMC5999394, “Design principles of a microtubule polymerase” (eLife, 2018).

Key:
[1] = molecular target: wild-type yeast microtubules (polymerized wild-type yeast αβ-tubulin) (S. cerevisiae) (UniProt P09733); test: TIRF microscopy, fluorescence intensity of the Stu2-eGFP spot on the growing microtubule end; end intensity dynamic assay; 5-300 nM Stu2-eGFP (titration, hyperbolic fit; apparent) or 200 nM variant; 0.8 μM wild-type yeast tubulin; 30°C
[2] = molecular target: T1, wild-type yeast microtubules (polymerized wild-type yeast αβ-tubulin) (S. cerevisiae, UniProt P09733 1-447; P02557 1-457); test: single-molecule TIRF microscopy, residence time on the growing microtubule end; 5 nM Stu2-eGFP variant with 1-1.5 µM unlabeled wild-type yeast tubulin; 100 ms streaming; one-phase exponential fit of the dwell times; 30°C; details: both partners purified
T1 construct: Tub1p (yeast α-tubulin), S. cerevisiae; Tub2p (yeast β-tubulin), S. cerevisiae; Polymer of m2; also called microtubule lattice; microtubule end
T1 sequence (P09733 whole entry, chain 1 of 2): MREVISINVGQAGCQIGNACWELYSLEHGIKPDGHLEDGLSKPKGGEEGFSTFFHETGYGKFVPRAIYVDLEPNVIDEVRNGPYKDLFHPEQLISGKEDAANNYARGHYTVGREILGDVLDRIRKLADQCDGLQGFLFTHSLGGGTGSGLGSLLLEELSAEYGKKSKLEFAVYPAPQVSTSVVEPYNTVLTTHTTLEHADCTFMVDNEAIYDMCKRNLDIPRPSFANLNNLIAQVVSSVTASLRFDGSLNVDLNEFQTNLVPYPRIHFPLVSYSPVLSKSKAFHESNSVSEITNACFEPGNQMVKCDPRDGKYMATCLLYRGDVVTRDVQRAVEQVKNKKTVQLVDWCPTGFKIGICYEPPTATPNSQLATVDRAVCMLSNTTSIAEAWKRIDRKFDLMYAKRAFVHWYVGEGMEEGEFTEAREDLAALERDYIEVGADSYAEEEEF
T1 sequence (P02557 whole entry, chain 2 of 2): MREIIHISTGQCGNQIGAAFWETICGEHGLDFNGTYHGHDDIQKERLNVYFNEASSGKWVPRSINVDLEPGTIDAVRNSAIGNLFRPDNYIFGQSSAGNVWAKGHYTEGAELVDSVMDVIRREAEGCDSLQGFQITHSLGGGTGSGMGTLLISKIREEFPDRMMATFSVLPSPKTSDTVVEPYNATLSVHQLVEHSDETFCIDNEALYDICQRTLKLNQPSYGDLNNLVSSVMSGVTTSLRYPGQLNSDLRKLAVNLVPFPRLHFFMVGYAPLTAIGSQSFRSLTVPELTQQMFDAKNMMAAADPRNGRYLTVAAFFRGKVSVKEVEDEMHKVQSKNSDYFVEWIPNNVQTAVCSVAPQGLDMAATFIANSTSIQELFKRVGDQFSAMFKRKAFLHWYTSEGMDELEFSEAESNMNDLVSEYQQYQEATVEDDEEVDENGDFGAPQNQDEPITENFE

[3] = molecular target: T1, wild-type yeast microtubules …; test: TIRF microscopy, fluorescence intensity of the Stu2-eGFP spot on the growing microtubule end; end intensity dynamic assay; 5-300 nM Stu2-eGFP (titration, hyperbolic fit; apparent) or 200 nM variant; 0.8 μM wild-type yeast tubulin; 30°C; details: both partners purified
[4] = molecular target: T1, wild-type yeast microtubules …; test: TIRF microscopy of Stu2-eGFP on dynamic microtubules (kymographs); axoneme-seeded unlabeled dynamic yeast microtubules on the cover slip; Stu2-eGFP variant (100-200 nM) with 0.5-0.8 μM unpolymerized yeast tubulin in imaging buffer (1X PEM, 50 µM GTP, 0.1 mg/mL BSA, antifade); 30°C; details: both partners purified

wild-type yeast microtubules (polymerized wild-type yeast αβ-tubulin) (S. cerevisiae), sequence (P09733 whole entry, chain 1 of 2): as the sequence (P09733 whole entry, chain 1 of 2) above
wild-type yeast microtubules (polymerized wild-type yeast αβ-tubulin) (S. cerevisiae), sequence (P02557 whole entry, chain 2 of 2, further chain): as the sequence (P02557 whole entry, chain 2 of 2) above

Row | Molecule | relative amount of polymerase on the microtubule end (wild type = one) (relative to wild type) [1] | characteristic residence time on the growing microtubule end [2] [s] | relative amount of polymerase on the microtubule end (wild type = one) [3] | binding result [4]
1 | Stu2(TOG2-TOG2)-eGFP (from UniProt P46675 1-888) | 1 | – | – | –
2 | Stu2(TOG2-TOG2*)-eGFP (other) MSGEEEVDYTTEETILDKLPKDFQERITSSKWKDRVEALEEFWDSVLSQTKKLKSTSQNYSNLLGIYGHIIQKDANIQAVALAAQSVELICDKLKTPGFSKDYVSLVFTPLLDRTKEKKPSVIEAIRKALLTICKYYDPLASSGRNEDMLKDILEHMKHKTPQIRMECTQLFNASMKEEKDGYSTLQRYLKDEVVPIVIQIVNDTQPAIRTIGFESFAILIKIFGMNTFVKTLEHLDNLKRKKIEETVKTDEPSSSKMLFEWEKRELEKKRSQEEEARKRKSILSNDEGEYQIDKDGDTLMGMETDMPPSKQQSGVQIDTFSMLPEETILDKLPKDFQERITSSKWKDRVEALEEFWDSVLSQTKKLKSTSQNYSNLLGIYGHIIQKDANIQAVALAAQSVELICDKLKTPGFSKDYVSLVFTPLLDRTKEKKPSVIEAIRKALLTICKYYDPLASSGRNEDMLKDILEHMKHKTPQIRMECTQLFNASMKEEKDGYSTLQRYLKDEVVPIVIQIVNDTQPAIATIGFESFAILIKIFGMNTFVKTLEHLDNLKRKKIEETVKTLPNFSIASGSTHSTIETNKQTGPMENKFLLKKSSVLPSKRVASSPLRNDNKSKVNPIGSVASASKPSMVAANNKSRVLLTSKSLATPKNVVANSTDKNEKLIEEYKYRLQKLQNDEMIWTKERQSLLEKMNNTENYKIEMIKENEMLREQLKEAQSKLNEKNIQLRSKEIDVNKLSDRVLSLENELRNMEIELDRNKKRNDTNLQSMGTISSYSIPSSTVSSNYGVKSLSSALPFKEEEDVRRKEDVNYERRSSESIGDLPHRVNSLNIRPYRKNGTGVSSVSDDLDIDFNDSFASEESYKRAAAVTSTLKARIEKMKAKSRREGTTRT | – | 3.9 | 0.5 relative to wild type | –
3 | 'doubly dead' Stu2(TOG1*-TOG2*)-eGFP (natural protein, S. cerevisiae, UniProt P46675 1-888, looked up, Stu2, S. cerevisiae, fully dimeric (888) background; also called double dead Stu2; source: E. coli Arctic Express, purified (His60 Superflow, Strep-Tactin); not shown: eGFP, C-terminal, kept) MSGEEEVDYTTLPLEERLTYKLWKARLEAYKELNQLFRNSVGDISRDDNIQIYWRDPTLFAQYITDSNVVAQEQAIVALNSLIDAFASSSLKNAHNITLISTWTPLLVEKGLTSSRATTKTQSMSCILSLCGLDTSITQSVELVIPFFEKKLPKLIAAAANCVYELMAAFGLTNVNVQTFLPELLKHVPQLAGHGDRNVASQTMNLIVEIYKVTGNNSDLLEEILFKKLKPIQVKDLHKLFAKVGDEPSSSKMLFEWEKRELEKKRSQEEEARKRKSILSNDEGEYQIDKDGDTLMGMETDMPPSKQQSGVQIDTFSMLPEETILDKLPKDFQERITSSKWKDRVEALEEFWDSVLSQTKKLKSTSQNYSNLLGIYGHIIQKDANIQAVALAAQSVELICDKLKTPGFSKDYVSLVFTPLLDRTKEKKPSVIEAIRKALLTICKYYDPLASSGRNEDMLKDILEHMKHKTPQIRMECTQLFNASMKEEKDGYSTLQRYLKDEVVPIVIQIVNDTQPAIATIGFESFAILIKIFGMNTFVKTLEHLDNLKRKKIEETVKTLPNFSIASGSTHSTIETNKQTGPMENKFLLKKSSVLPSKRVASSPLRNDNKSKVNPIGSVASASKPSMVAANNKSRVLLTSKSLATPKNVVANSTDKNEKLIEEYKYRLQKLQNDEMIWTKERQSLLEKMNNTENYKIEMIKENEMLREQLKEAQSKLNEKNIQLRSKEIDVNKLSDRVLSLENELRNMEIELDRNKKRNDTNLQSMGTISSYSIPSSTVSSNYGVKSLSSALPFKEEEDVRRKEDVNYERRSSESIGDLPHRVNSLNIRPYRKNGTGVSSVSDDLDIDFNDSFASEESYKRAAAVTSTLKARIEKMKAKSRREGTTRT | – | – | – | binds
4 | Stu2(TOG1-TOG2*)-eGFP (R519A) (natural protein, S. cerevisiae, UniProt P46675 1-888, looked up, Stu2, S. cerevisiae, fully dimeric (888) background; also called TOG2* (R519A); source: E. coli Arctic Express, purified (His60 Superflow, Strep-Tactin); not shown: eGFP, C-terminal, kept) MSGEEEVDYTTLPLEERLTYKLWKARLEAYKELNQLFRNSVGDISRDDNIQIYWRDPTLFAQYITDSNVVAQEQAIVALNSLIDAFASSSLKNAHNITLISTWTPLLVEKGLTSSRATTKTQSMSCILSLCGLDTSITQSVELVIPFFEKKLPKLIAAAANCVYELMAAFGLTNVNVQTFLPELLKHVPQLAGHGDRNVRSQTMNLIVEIYKVTGNNSDLLEEILFKKLKPIQVKDLHKLFAKVGDEPSSSKMLFEWEKRELEKKRSQEEEARKRKSILSNDEGEYQIDKDGDTLMGMETDMPPSKQQSGVQIDTFSMLPEETILDKLPKDFQERITSSKWKDRVEALEEFWDSVLSQTKKLKSTSQNYSNLLGIYGHIIQKDANIQAVALAAQSVELICDKLKTPGFSKDYVSLVFTPLLDRTKEKKPSVIEAIRKALLTICKYYDPLASSGRNEDMLKDILEHMKHKTPQIRMECTQLFNASMKEEKDGYSTLQRYLKDEVVPIVIQIVNDTQPAIATIGFESFAILIKIFGMNTFVKTLEHLDNLKRKKIEETVKTLPNFSIASGSTHSTIETNKQTGPMENKFLLKKSSVLPSKRVASSPLRNDNKSKVNPIGSVASASKPSMVAANNKSRVLLTSKSLATPKNVVANSTDKNEKLIEEYKYRLQKLQNDEMIWTKERQSLLEKMNNTENYKIEMIKENEMLREQLKEAQSKLNEKNIQLRSKEIDVNKLSDRVLSLENELRNMEIELDRNKKRNDTNLQSMGTISSYSIPSSTVSSNYGVKSLSSALPFKEEEDVRRKEDVNYERRSSESIGDLPHRVNSLNIRPYRKNGTGVSSVSDDLDIDFNDSFASEESYKRAAAVTSTLKARIEKMKAKSRREGTTRT | – | 4 | 0.5 relative to wild type | –
5 | Stu2(TOG1*-TOG2)-eGFP (R200A) (natural protein, S. cerevisiae, UniProt P46675 1-888, looked up, Stu2, S. cerevisiae, fully dimeric (888) background; also called TOG1* (R200A); source: E. coli Arctic Express, purified (His60 Superflow, Strep-Tactin); not shown: eGFP, C-terminal, kept) MSGEEEVDYTTLPLEERLTYKLWKARLEAYKELNQLFRNSVGDISRDDNIQIYWRDPTLFAQYITDSNVVAQEQAIVALNSLIDAFASSSLKNAHNITLISTWTPLLVEKGLTSSRATTKTQSMSCILSLCGLDTSITQSVELVIPFFEKKLPKLIAAAANCVYELMAAFGLTNVNVQTFLPELLKHVPQLAGHGDRNVASQTMNLIVEIYKVTGNNSDLLEEILFKKLKPIQVKDLHKLFAKVGDEPSSSKMLFEWEKRELEKKRSQEEEARKRKSILSNDEGEYQIDKDGDTLMGMETDMPPSKQQSGVQIDTFSMLPEETILDKLPKDFQERITSSKWKDRVEALEEFWDSVLSQTKKLKSTSQNYSNLLGIYGHIIQKDANIQAVALAAQSVELICDKLKTPGFSKDYVSLVFTPLLDRTKEKKPSVIEAIRKALLTICKYYDPLASSGRNEDMLKDILEHMKHKTPQIRMECTQLFNASMKEEKDGYSTLQRYLKDEVVPIVIQIVNDTQPAIRTIGFESFAILIKIFGMNTFVKTLEHLDNLKRKKIEETVKTLPNFSIASGSTHSTIETNKQTGPMENKFLLKKSSVLPSKRVASSPLRNDNKSKVNPIGSVASASKPSMVAANNKSRVLLTSKSLATPKNVVANSTDKNEKLIEEYKYRLQKLQNDEMIWTKERQSLLEKMNNTENYKIEMIKENEMLREQLKEAQSKLNEKNIQLRSKEIDVNKLSDRVLSLENELRNMEIELDRNKKRNDTNLQSMGTISSYSIPSSTVSSNYGVKSLSSALPFKEEEDVRRKEDVNYERRSSESIGDLPHRVNSLNIRPYRKNGTGVSSVSDDLDIDFNDSFASEESYKRAAAVTSTLKARIEKMKAKSRREGTTRT | – | 1.7 | – | –
